# Residue numbers refer to the chain shown, from its start.
# T1: soluble cynomolgus GPNMB (recombinant extracellular domain) (cynomolgus, UniProt Q14956 23-499 (human entry), limits assumed)
# T1 chain: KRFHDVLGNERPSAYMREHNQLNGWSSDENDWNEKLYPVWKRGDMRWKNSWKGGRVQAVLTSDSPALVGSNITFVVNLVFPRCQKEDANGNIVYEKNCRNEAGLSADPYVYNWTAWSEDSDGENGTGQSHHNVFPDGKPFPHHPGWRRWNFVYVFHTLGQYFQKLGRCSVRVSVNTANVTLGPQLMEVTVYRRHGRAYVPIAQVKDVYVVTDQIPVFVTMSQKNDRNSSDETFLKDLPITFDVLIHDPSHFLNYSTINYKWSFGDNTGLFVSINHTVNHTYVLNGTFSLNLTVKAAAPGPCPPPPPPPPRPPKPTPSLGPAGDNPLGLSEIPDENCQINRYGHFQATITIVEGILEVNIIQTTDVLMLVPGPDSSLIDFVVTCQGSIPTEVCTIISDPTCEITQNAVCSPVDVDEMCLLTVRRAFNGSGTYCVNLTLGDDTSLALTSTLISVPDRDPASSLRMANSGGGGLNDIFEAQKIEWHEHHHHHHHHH
# T2: full-length untagged human GPNMB expressed on cells (human, UniProt Q14956 23-572)
# T2 sequence: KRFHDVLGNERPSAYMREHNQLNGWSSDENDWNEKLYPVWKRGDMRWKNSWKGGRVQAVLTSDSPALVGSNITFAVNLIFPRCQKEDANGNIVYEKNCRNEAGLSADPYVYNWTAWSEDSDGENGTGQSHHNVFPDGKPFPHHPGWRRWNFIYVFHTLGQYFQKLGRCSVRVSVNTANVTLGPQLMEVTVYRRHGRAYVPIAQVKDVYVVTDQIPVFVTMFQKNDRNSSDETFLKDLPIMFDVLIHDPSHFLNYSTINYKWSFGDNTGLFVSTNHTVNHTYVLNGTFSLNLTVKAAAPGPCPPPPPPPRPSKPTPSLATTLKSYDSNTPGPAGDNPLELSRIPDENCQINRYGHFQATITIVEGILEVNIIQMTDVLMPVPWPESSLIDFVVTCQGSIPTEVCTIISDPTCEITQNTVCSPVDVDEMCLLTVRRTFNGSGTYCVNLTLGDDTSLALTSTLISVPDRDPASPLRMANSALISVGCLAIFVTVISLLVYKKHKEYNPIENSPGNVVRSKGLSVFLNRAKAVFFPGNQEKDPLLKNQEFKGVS
# B1: anti-GPNMB antibody GPN-41 (antibody, human IgG1, V domains shown)
# VH: QLQLQQSGTEVVKPGASVKIPCKASGYAFSSYWMNWVKQRPGKGLEWIGQIYPGDGDTNDNGKFEGKATLTVDKSSNTAYIQLSSLTSEDSAVYFCARSPLHLRGSMDYWGQGTSVTVSS
# VL: SIVMTQTPKFLLVSAGDRVTITCKASQSVSNDVAWFQQKPGQSPELLIYSASNRYTGVPDRFTASGYGTDFTFTISAVQAEDLAVYFCQQNYYSPFTFGGGTRLEIK
# notes: chimeric
# B2: anti-GPNMB antibody GPN-65 (antibody, human IgG1, V domains shown)
# VH: B1 VH
# VL: B1 VL with A64G, A77T
# notes: chimeric
# B3: anti-GPNMB antibody GPN-43 (antibody, human IgG1, V domains shown)
# VH: EVQLQQSGPELVKPGASVKISCKASGYTFTDYYMNWVRQSHGKSLEWIGDINPYHGGSTYNQKIKVKATLTVDKSSSTAYMELRSLTSEDSAVYYCARNWPYFDYWGQGTTLTVSS
# VL: DIQMTQSPASLSASVGETVTITCRASENIYSFLVWYQQKQGKSPQLLVYNAKTLAEGVPSRFSGSGSGTQFSLKISSLQPEDFGSYYCQHHFGTPPYTFGGGTKLEIK
# notes: chimeric
# B4: anti-GPNMB antibody GPN-38 (antibody, human IgG1, V domains shown)
# VH: QVQLQQPGAELVRPGTSVRLSCKASGYTFTSYWIHWVKQRPGRGLEWIGVIDPSDSYTNYNQQFNVKATLTVDTSSSAAYMQLSSLTSEDSAVYYCARGLITAVNWYFDVWGTGTTVTVSS
# VL: DIQMTQSPASLSTSVGEIVTITCRASENIYSYLTWYQQKQGKSPQLLVYNAKTLAEGVPSRFSGSGSGTQFSLKINSLQPEDFGTYYCQHHYGTPLTFGSGTKLEIK
# notes: chimeric
# B5: anti-GPNMB antibody GPN-48 (antibody, human IgG1, V domains shown)
# VH: QVQLQQSGPELVKPGASVKLSCRASGYGFSSFWMNWVKQRPGKGLEWIGRIYPGKGDTLYNGKFKDKATLTADESSSTAYMQLSSLTSEDSAVYFCARSIYYYDYWYFDVWDTGTTVTVSS
# VL: DIVMTQSHKFMSTSVGDRVNITCKASQDVNSAIAWYQQKPGQSPKLLIYSASYRFIGVPDRFTGSGSGTGFTFTISSVQAEDLAVYYCQQHYTTPLTFGAGTKLELK
# notes: chimeric
# B6: anti-GPNMB antibody GPN-42 (antibody, human IgG1, V domains shown)
# VH: DVKLVESGEDLVKPGGSLKLSCAASGFTFSSYAMSWVRQTPEKRLEWVAYISSGGDYIYYADTVKGRFTISRDNARNTLYLQMSSLKSEDTAMYYCTRDRYYDYDVRDYYTMDYWGQGTSVTVSS
# VL: DVMMTQTPLSLPVSLGDQASISCRSSQSLVHSNGNTYLHWFLQKPGQSPKLLIFRVSNRFSGVPDRFSGRGSGTDFTLKISRVEAEDLGVYFCSQTTHVPRTFGGGTTLEIK
# notes: chimeric
# B7: anti-GPNMB antibody GPN-83 (antibody, V domains shown)
# VH: QVQLQESGPGLVKPSETLSLTCTVSGISITTGNYRWSWIRQPPGKGLEWIGYIDYSGTITYNPSLKSRVTITRDTSKNQFSLELSSVTAADTAVYYCARDLTHWYFDVWGQGTLVTVSS
# VL: DIVMTQSPDSLAVSLGERATINCKSSRSVDYYGIGFVNWYQQKPGQPPKLLIYATSIQGSGVPDRFSGSGSGTDFTLTISSLQAEDVAVYYCQQQKEVPPTFGGGTKVEIK
# B8: anti-GPNMB antibody GPN-86 (antibody, V domains shown)
# VH: B7 VH
# VL: B7 VL with V37L, I57K
# B9: anti-GPNMB antibody GPN-91 (antibody, V domains shown)
# VH: B7 VH
# VL: B7 VL with V37L, I57H, V98R
# B10: anti-GPNMB antibody GPN-87 (antibody, V domains shown)
# VH: B7 VH with F106Y
# VL: B7 VL with V37L, I57K
# B11: anti-GPNMB antibody GPN-89 (antibody, V domains shown)
# VH: B7 VH with F106Y
# VL: B7 VL with V37L, I57H
# B12: anti-GPNMB antibody GPN-90 (antibody, V domains shown)
# VH: B7 VH with S67Q
# VL: B7 VL with V37L, I57H
# B13: anti-GPNMB antibody GPN-84 (antibody, V domains shown)
# VH: B7 VH with F106Y
# VL: B7 VL
# B14: anti-GPNMB antibody GPN-88 (antibody, V domains shown)
# VH: B7 VH
# VL: B7 VL with V37L, I57H, E97H
# B15: anti-GPNMB antibody GPN-85 (antibody, V domains shown)
# VH: B7 VH with S67Q
# VL: B7 VL with Y32F, V37L, I57H
# Biological target: T1, soluble cynomolgus GPNMB (recombinant …)
# Assay: SPR binding
# Procedure: Binding kinetics of human anti-GPNMB IgG1 antibodies of the present disclosure to human, cynomolgus, and mouse GPNMB were evaluated using a Carterra LSA instrument (Carterra, Salt Lake City, UT). […] A HC200M sensor chip (Carterra) was activated using the single channel flow cell with a 7-minute injection of a 1:1:1 mixture of 100 mM MES pH 5.5, 100 mM sulfo-NHS, 400 mM EDC (all reconstituted in MES pH 5.5; 100 μl of each mixed in vial immediately before running assay). After switching to the multi-channel array flow cell, the antibodies were injected over the activated chip in a 96-spot array for 15 minutes. The remaining unconjugated active groups on the chip were then blocked by injecting 1M Ethanolamine pH 8.5 (Carterra) for 7 minutes using the single channel flow cell.
# After priming with running buffer (HBS-EP+, Teknova) with 0.5 mg/ml BSA (Sigma), the immobilized anti-GPNMB antibodies were tested for their ability to bind to several forms of recombinant GPNMB extracellular domain, including human, cynomolgus, and mouse orthologs as described above. Estimates of affinity were generated by injecting each analyte over the entire antibody array using the single channel flow cell. GPNMB analytes were diluted to 2.5, 7.4, 22, 67, 200, and 600 nM in running buffer, and injected in serial from lowest to highest concentration without regeneration. Two buffer blanks were run between each series (one species per series). Data were processed and analyzed using Kinetics high-throughput kinetics analysis software (Carterra).
row,binding result,Binder
1,binds,B1
2,binds,B2
3,binds,B3
4,binds,B4
5,binds,B5
6,binds,B6

# Biological target: T1, soluble cynomolgus GPNMB (recombinant …)
# Assay: SPR Biacore, IgG captured
Kd,koff,kon,Binder
8.1 nM,0.0014 s⁻¹,170000 M⁻¹ s⁻¹,B7
5.5 nM,0.0011 s⁻¹,190000 M⁻¹ s⁻¹,B8
3.6 nM,0.00052 s⁻¹,150000 M⁻¹ s⁻¹,B9
6.2 nM,0.0012 s⁻¹,190000 M⁻¹ s⁻¹,B10
3.3 nM,0.00055 s⁻¹,170000 M⁻¹ s⁻¹,B11
3.2 nM,0.00051 s⁻¹,160000 M⁻¹ s⁻¹,B12
10.3 nM,0.0019 s⁻¹,180000 M⁻¹ s⁻¹,B13
3.7 nM,0.00061 s⁻¹,160000 M⁻¹ s⁻¹,B14
1.4 nM,0.00021 s⁻¹,150000 M⁻¹ s⁻¹,B15

# Biological target: T2, full-length untagged human GPNMB …
# Assay: cell-based or functional assay
EC50 PDL1,Fold Increase CD40 (max response at 1 µg/ml),Fold Increase PDL1 (max response at 1 µg/ml),Binder
0.91 nM,2.1 fold,4.31 fold,B7
1.37 nM,2.15 fold,4.57 fold,B8
1.36 nM,2.15 fold,4.4 fold,B10
1 nM,2.12 fold,4.22 fold,B11
0.68 nM,2.12 fold,4.28 fold,B12
0.97 nM,2.1 fold,4.22 fold,B15

# Reference: patent US20250270343A1 (Alector, published 2025)
